B1: DSR anti-defense 1 (DSAD1) from phage phi3T/SPbeta (natural protein)
chain: KDTGATHDLVYHSKINTFVWDVEFDIVLSDSKELNKCYFVKCFNPYRINGKCDFAVSSIDIFSEGKRLLIENEFNFKITKAVHVATSKDVTEIVLHLSERISSPFPIVKEVVYLD
notes: DSAD1 from phage phi3T/SPbeta, WP_004399562; source: E. coli BL21(DE3), purified (Ni-NTA, TEV cleavage, SEC); not shown: His-tag, N-terminal, cleaved; Trx-tag, N-terminal, cleaved
B2: monomeric tail tube protein (TTP) of phage SPR (natural protein)
chain: MKTVIQDTADVYFKRKSDGKLVFTAEAQTASFSQAISEEKLRGGIGNKPLYILKSEKEINLTVKNAFFDLEWLAMTQGETIQEETKVKVFDREHGLIVDDTNKVTLKGKPVSDVTFYNKKGLTYKIAVSTDGTYTIPTAFAAAKDKLTAVYQIEKVGRRLAIKASKFSERYEVEYRTIAYNPDTEEVYSDIYIQFPNVSPSGEFEMSLENGNALAPEIKFEALADTDTDEMAVVIEASRDENTAAPVEDTTGSTQSSDLGGTTE
notes: tail tube protein (TTP) from phage SPR, WP_010328117; residues 1 to 73 and 189 to 263 seen in the complex structure; also called Mono TTP; monomeric TTP; source: E. coli BL21(DE3), purified (Ni-NTA, TEV cleavage, SEC; monomeric fraction); not shown: His-tag, N-terminal, cleaved; Trx-tag, N-terminal, cleaved
B3: defense-associated sirtuin2 (DSR2) from Bacillus subtilis 29R (enzyme, UniProt P0DXN8 1-1005, looked up)
chain: MVKVDLESKRYGEKLKEVFLMLDNNVVECIKEITESSRNGKLVFFVGAGVSTLSDYPQWWRLVDKYHEELYGSPKKGNYSSDEYLRIPQIFYNVKGEMAFDGILKDFFQVDKPTNPIHDKILAMNPAHVITTNYDNLIDTACWKRGKYFSVISAEEDVANATSSRYLLKVHGDFRKGFKGENVVLKEDDYLNYDQNYPLISNLMKTIIATHTIVFIGYGLGDYNINMLLNWVRKLQKDSFHKPFFIRTDPSPIENETLIYYENKGLRIIDAASLIDSNEYDYLERYSAVMDLLIESQENKFITKDDEVIDYIYGKISPLFALQYIRKIDLKHVFEYDYHFEVNGTVVRHKNKGFGYMERFFELKESCDERSKLSKKQYERFNALFNFFEKNGVICMAKDAGTLNTSIEINSLAYHGKYDVMKKFIEEQSVSIEDDYKKAFFLACLGRWEESYDLYSNIILNSIDESNGCVYYLSQINRYRIYQSITQAVTQFNGLGLLTFGRHYKPFTDEFLARIEREMTNFNIDDLFNGMPFEFQKKYKILEFLSDNQFLYDDTVKLFELTNKVRSEMSEGSYSFGMSSDIVVLLRLYDNLRFLYENCLWSVSFHEFHQYIRNSMSLLIEKAEYERTRDIDELGFSFFGKKSGFFMEYYDFVNISRHFKIDDIKNLERSCSIDKIRFGEQEKIEEYLVGIAEEITKQFSANGMNVVFYTQFISEAKAALYFAKYVKLSEEGLGKIVKALLFYFPERDLDIGKRYVWLERLTKCNELPKSIISIIDDFLVLQAEKHIDQNYSEVSSNGLYSRDYGALIKHFEKNFISKRLSEITLCLTQDKQKQIDFLFKLLPLLSTNAKSHLLSFKSVENINDLMNGIRIGLIDEFTPEHEELIIEYLETRKVNYIVEKEKGIQTFSSNDYMSTFGIWYFLEEINNSKMEEFIGMDDQYDFFVDPENFDYKKFIPSWLKNYNDKLLGKIAGNKHMKHHVIEVLKERVKNSNDKRYLEILMNYFI
notes: DSR2 from Bacillus subtilis 29R, WP_029317421; SIR2 domain residues 1 to 297, MID 297 to 627, CTD 627 to 1005; Cloned into pET28a; tag not cleaved (purified directly by SEC); For MST the protein was fluorescently labelled with the Monolith Protein Labeling Kit RED-NHS second generation; also called DSR2^WT; His-tag DSR2; source: E. coli BL21(DE3), purified (Ni-NTA, size-exclusion gel filtration)

In data set [1] the target is B3. Kind of data set: cryo-EM structure; purified DSR2 or its complex with DSAD1 or TTP (formed at a molar ratio of 1:3, on ice, purified by gel filtration), 1.0 mg/ml on Quantifoil grids. As to conditions: both partners purified. For orientation: Size exclusion chromatography separates by hydrodynamic size, large species first.
The target in data set [2] is B3. Kind of data set: MST; DSR2 fluorescently labelled (RED-NHS), 100 nM, mixed with twofold dilutions of TTP or DSAD1; 10 mM phosphate-buffered saline, 0.05% Tween 20; 20 min at room temperature; Monolith NT.115; triplicate. As to conditions: both partners purified.
Data set [3] concerns the molecule itself. The data set is described as follows: cryo-EM structure; purified DSR2 or its complex with DSAD1 or TTP (formed at a molar ratio of 1:3, on ice, purified by gel filtration), 1.0 mg/ml on Quantifoil grids.

The stoichiometry N is a count of units in the complex or per binding partner. The Kd is the concentration at which binding is half-saturated. Read a high Kd as weaker binding. For the molecule B1, in data set [1], the “stoichiometry N” value was 0.5 DSAD1:DSR2. In data set [2], this molecule returned a Kd of 40.4 nM. Molecule B2 returned a Kd in data set [2] of 655 nM.

For the molecule B3, the “stoichiometry N” value in data set [3] turned out to be 4.

The values above are taken from article PMC11290490, “Structural insights into activation mechanisms on NADase of the bacterial DSR2 anti-phage defense system” (Science Advances, 2024).
